Results on 2 molecules are retold here after patent US20090098130A1 (published 2009).

Non-standard residues stand in square brackets, D forms with d. No end group written: not given here. Aib = CC(C)(N)C(=O)O

This test concerns the target glucagon-like peptide 1 receptor (GLP-1R). Kind of test: cell-based or functional assay.

B1: GA targeting peptide of SEQ ID NO: 9 (peptide)
peptide: H[Aib]EGTFTSDLSKQLEEEAVRLAIEFLKN
With B1, the “EC50 (µM), glucose-stimulated insulin secretion (GSIS) assay on pancreatic β cell cultures” value is less than 10 µM.

B2: GA targeting peptide of SEQ ID NO: 10 (peptide)
peptide: H[Aib]EGTFTSDLSKQLEEEAVRLAIEFLKNGGPSSGAPPPS
With B2, the “EC50 (µM), glucose-stimulated insulin secretion (GSIS) assay on pancreatic β cell cultures” value was less than 10 µM.
